Columns and labels:
[1] = system: E13.5 primary cultures from the cerebral cortex; experiment: Induction of TH in Nurr1+ E13.5 cerebral cortex primary cultures; assay type: cell-based, rat; settings: for proportion of Nurr1 positive cortical cells that expressed TH: Wnt ligands or co-culture with P1 astrocytes
Protocol: (§1) Ventral mesencephala and cerebral cortices from embryos E13.5-14.5 obtained from timed-mated Sprague-Dawley rats were dissected, mechanically dissociated and plated at a final density of 1×10^5 cells/cm2 on poly-D-lysine coated 12- or 24-well plates in a defined, serum-free medium (N2, consisting of a 1:1 mixture of F12 and DMEM containing insulin (10 ng/ml), transferrin (100 μg/ml), putrescine (100 μM), progesterone (20 nM), selenium (30 nM), glucose (6 mg/ml), and bovine serum albumin (1 mg/ml)). Purified Type 1 astrocytes were obtained from mixed glial cultures derived from the VM or CTX of P1 rats according to a standard protocol (Wagner et al., 1999). After shaking and replating into 12-well plates, astrocytes were grown to confluency in 15% fetal bovine serum-containing media and changed to N2 medium, at which time freshly dissected VM or CTX cells were plated on top of the astrocytes at a density of 1×10^5 cells/cm2. All factors were added once, at the initiation of culture, with the exception of 5-bromodeoxyuridine (BrdU), which was added 4-6 hours prior to fixation. Cultures were maintained in a humidified 5% CO2, 95% air incubator at 37° C. and fixed after given time periods with 4% paraformaldehyde for 45 minutes prior to immunocytochemical analysis.
Fixed cultures were incubated with one of the following antibodies, diluted appropriately in phosphate-buffered saline (PBS) containing 1% bovine serum albumin and 0.3% Triton-X 100: mouse anti-BrdU, 1:50 (DAKO, Denmark), mouse anti-β-tubulin, Type III (TuJ1), 1:250 (Sigma), mouse anti-TH, 1:1000 (Incstar, USA), rabbit anti-TH, 1:250 (PelFreeze); rabbit anti-Nurr1, 1:2000 (gift from Dr. T. Perlmann, Sweden), rabbit anti-Nurr1, 1:1000 (Santa Cruz, USA) or mouse anti-Nurr1, 1:250 (BD Transduction Laboratories, USA), rabbit anti Adh2 1:4000 (gift from Dr. R. Lindahl, South Carolina). Incubations were either carried out at 4° C. overnight, or at room temperature for 1 hour. Both processes yielded similar results. After washing, cultures were incubated for 1-3 hr with appropriate secondary antibodies (biotinylated 1:500; CY2-, FITC-, or rhodamine-coupled horse-anti-mouse IgG 1:100; or goat-anti-rabbit IgG 1:100; all from Vector, USA), in the same dilution buffer. Brightfield immunostaining was visualized with the Vector Laboratory ABC immunoperoxidase kit, using either NovaRed (red), or AEC (red), SG or 3-3′ dimaminobenzidine tetrahydrochloride (DAB 0.5 mg/ml)/nickel chloride (1.6 mg/ml) (gray/black), or VIP (violet) substrates. Double-staining was performed by sequential single staining as described. The order of staining was only critical for BrdU-double labeling, in which case the BrdU procedure was always performed second. […] Photos were acquired with a Zeiss Axioplan 100M microscope and collected with a Hamamatsu camera C4742-95 (with the QED imaging software).
Only clearly stained cells were counted as positive cells. Spheres were considered positive if they contained one or more positive cell. Quantitative immunocytochemical data on individual cells represent means and standard errors of counts obtained by a blinded observer from 10-20 non-overlapping fields (cells) or in the entire well (clusters), in each of 3-4 wells per condition from 3-4 independent experiments, unless stated otherwise. […]

[2] = system: ventral mesencephalic Nurr1+ neuronal precursors; experiment: Conversion of VM Nurr1+ precursors into Nurr1+/TH+ dopaminergic neurons (double immunostaining); assay type: cell-based, rat; settings: VM cultures; control approximately 50%
Protocol: as §1
B1A fibroblast lines were cotransfected with the mFz8CRD-IgG/pRK5 and the pIRES puro 2 (Clontech, BD Bioscience, Erembodegem, Belgium) plasmids, using Lipofectamine Plus reagent (Invitrogen, Lidingo, Sweden) according to the instruction of the manufacturer. Upon selection for puromycin resistance (1 μg/ml Sigma, Stockholm, Sweden), clones were isolated and expanded. A clone overexpressing Fz8CRD 700× (real time RT-PCR analysis) was identified. Harvesting and partial purification of Fz8CRD conditioned media were performed as described previously. In all the blocking experiments performed, the Fz8CRD and B1A control partial purified conditioned medias were used at a final concentration of 125-250 μg/ml. […]
Only clearly stained cells were counted as positive cells. […]

B1: Wnt-5a: Partially purified conditioned media from stable fibroblast cell line engineered to secrete Wnt-5a ligand (protein)
chain: IIGAQPLCSQLAGLSQGQKKLCHLYQDHMQYIGEGAKTGIKECQYQFRHRRWNCSTVDNTSVFGRVMQIGSRETAFTYAVSAAGVVNAMSRACREGELSTCGCSRAARPKDLPRDWLWGGCGDNIDYGYRFAKEFVDARERERIHAKGSYESARILMNLHNNEAGRRTVYNLADVACKCHGVSGSCSLKTCWLQLADFRKVGDALKEKYDSAAAMRLNSRGKLVQVNSRFNSPTTQDLVYIDPSPDYCVRNESTGSLGTQGRLCNKTSEGMDGCELMCCGRGYDQFKTVQTERCHCKFHWCCYVKCKKCTEIVDQFVCK
modifications: left off: small tags and cut ends
increase in number of double Nurr1/TH+ cells compared to Wnt-1 ([1]; 3 days): > 4 fold | increase in number of double Nurr1/TH+ cells compared to control ([1]; 3 days): > 40 fold | proportion of Nurr1 positive cortical cells that expressed TH [1]: significant increase | proportion of Nurr1 positive cells that expressed TH (Nurr1+/TH+) [2]: 90%

B2: Wnt-1: Partially purified conditioned media from stable fibroblast cell line engineered to secrete Wnt-1 ligand (protein)
chain: ANSSGRWWGIVNIASSTNLLTDSKSLQLVLEPSLQLLSRKQRRLIRQNPGILHSVSGGLQSAVRECKWQFRNRRWNCPTAPGPHLFGKIVNRGCRETAFIFAITSAGVTHSVARSCSEGSIESCTCDYRRRGPGGPDWHWGGCSDNIDFGRLFGREFVDSGEKGRDLRFLMNLHNNEAGRTTVFSEMRQECKCHGMSGSCTVRTCWMRLPTLRAVGDVLRDRFDGASRVLYGNRGSNRASRAELLRLEPEDPAHKPPSPHDLVYFEKSPNFCTYSGRLGTAGTAGRACNSSSPALDGCELLCCGRGHRTRTQRVTERCNCTFHWCCHVSCRNCTHTRVLHECL
modifications: left off: small tags and cut ends
proportion of Nurr1 positive cortical cells that expressed TH [1]: significant increase | proportion of Nurr1 positive cells that expressed TH (Nurr1+/TH+) [2]: 70%

Source: patent US20090087417A1, “METHODS FOR PROMOTING DOPAMINERGIC NEURONAL DEVELOPMENT BY USING NG4A-SUBFAMILY AND WNT-LIGANDS” (priority 2002, published 2009)
